We go through 32 molecules from patent US20260184782A1 (TWIST BIOSCIENCE, published 2026).

The experiment concerns the target T1, human TIGIT-Fc (human, UniProt Q495A1 22-141, limits assumed).
T1 construct: not shown: Fc; not described
T1 sequence (looked up): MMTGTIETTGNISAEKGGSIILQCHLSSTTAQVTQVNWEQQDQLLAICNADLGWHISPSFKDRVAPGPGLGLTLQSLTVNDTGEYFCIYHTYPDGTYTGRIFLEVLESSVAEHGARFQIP
The experiment in a line: CD155 competition ELISA, single point. Note: test concentration or dose not given here. The protocol: TIGIT/CD155 inhibition of VHH-Fcs were assessed using an ELISA assay (Table 10B). Briefly, human TIGIT-Fc was coated on a plate & then incubated with VHH-Fcs and human CD155-biotin. Bound CD155-biotin was detected using a streptavidin-HRP conjugate visualized with TMB. Strong inhibitors from the single point screen were titrated to determine EC50 (Table 10C).
Background: An ELISA detects its analyte on a solid surface through an enzyme-linked reagent.

B1: TIGIT-SC12 (Fc fusion)
VHH: EVQLVESGGGLVQPGGSLRLSCAASGRTFSAYGMGWFRQAPGKEREFVAAITPSSRTTYYADSVKGRFTISADNSKNTAYLQMNSLKPEDTAVYYCAKDNWGEWLMPWWGQGTLVTVSS
notes: VHH-Fc
For B1, the “OD (450 nm)” value worked out at 0.622 OD.

B2: TIGIT-SC18 (Fc fusion)
VHH: EVQLVESGGGLVQPGGSLRLSCAASGFSLDYYAMGWFRQAPGKEREVVAIIDTNGDNTLYADSVKGRFTISADNSKNTAYLQMNSLKPEDTAVYYCARGRGYGDYVGAYWGQGTLVTVSS
notes: VHH-Fc
As to B2, the “OD (450 nm)” value is 0.716 OD.

B3: TIGIT-SC32 (Fc fusion)
VHH: EVQLVESGGGLVQPGGSLRLSCAASGFAFGDSWMGWFRQAPGKERELVAAIDWSGGSALYADSVKGRFTISADNSKNTALQMNSLKPEDTAVYYCAKVHSDFRAGWDVWGQGTLVTVSS
notes: VHH-Fc
As for B3, the “OD (450 nm)” value amounted to 0.86 OD.

B4: TIGIT-SC29 (Fc fusion)
VHH: EVQLVESGGGLVQPGGSLRLSCAASGFTLENNMMGWFRQAPGKERELVAAIDWSGGSTIYADSVKGRFTISADNSKNTAYLQMNSLKPEDTAVYYCARGHDYGDYIAYWGQGTLVTVSS
notes: VHH-Fc
On to B4, for which the “OD (450 nm)” value was 0.399 OD.

B5: TIGIT-SC9 (Fc fusion)
VHH: EVQLVESGGGLVQPGGSLRLSCAASGNTFSGGFMGWFRQAPGKEREWVASVLRGGYTWYADSVKGRFTISADNSKNTAYLQMNSLKPEDTAVYYCVNGYSYGRDYWGQGTLVTVSS
notes: VHH-Fc
For the molecule B5, the “OD (450 nm)” value is 0.756 OD.

B6: TIGIT-SC10 (Fc fusion)
VHH: EVQLVESGGGLVQPGGSLRLSCAASGNTFSGGFMGWFRQAPGKEREWVASVLRGGYTWYADSVKGRFTISADNSKNTAYLQMNSLKPEDTAVYYCASDPWGTRYFDHWGQGTLVTVSS
notes: VHH-Fc
Consider B6, for which the “OD (450 nm)” value stood at 0.756 OD.

B7: TIGIT-SC21 (Fc fusion)
VHH: EVQLVESGGGLVQPGGSLRLSCAASGNTFSGGFMGWFRQAPGKEREWVASVLRGGYTWYADSVKGRFTISADNSKNTAYLQMNSLKPEDTAVYYCARGGAGSDWFGPWGQGTLVTVSS
notes: VHH-Fc
Regarding B7, the “OD (450 nm)” value came out at 0.607 OD.

B8: TIGIT-SC175 (Fc fusion)
VHH: EVQLVESGGGLVQPGGSLRLSCAASGNTFSGGFMGWFRQAPGKEREWVASVLRGGYTWYADSVKGRFTISADNSKNTAYLQMNSLKPEDTAVYYCTTDALRFLEWPWWGQGTLVTVSS
notes: VHH-Fc
Consider B8, for which the “OD (450 nm)” value turned out to be 0.59 OD.

B9: TIGIT-SC61 (Fc fusion)
VHH: EVQLVESGGGLVQPGGSLRLSCAASGNTFSGGFMGWFRQAPGKEREWVASVLRGGYTWYADSVKGRFTISADNSKNTAYLQMNSLKPEDTAVYYCTRGDTAMATFDYWGQGTLVTVSS
notes: VHH-Fc
Take B9: the “OD (450 nm)” value came out at 0.343 OD.

B10: TIGIT-SC19 (Fc fusion)
VHH: EVQLVESGGGLVQPGGSLRLSCAASGRTYDAMGWFRQAPGKEREWVASVLRGGYTWYADSVKGRFTISADNSKNTAYLQMNSLKPEDTAVYYCARDVDYRFDSWGQGTLVTVSS
notes: VHH-Fc
As to B10, the “OD (450 nm)” value is 0.746 OD.

B11: TIGIT-SC22 (Fc fusion)
VHH: EVQLVESGGGLVQPGGSLRLSCAASGFTLENNMMGWFRQAPGKEREMVAAISWSGGSALYADSVKGRFTISADNSKNTAYLQMNSLKPEDTAVYYCARGDGYSYGNFDYWGQGTLVTVSS
notes: VHH-Fc
As for B11, the “OD (450 nm)” value stood at 0.552 OD.

B12: TIGIT-SC28 (Fc fusion)
VHH: EVQLVESGGGLVQPGGSLRLSCAASGRTFSTDAMGWFRQAPGKEREFVATINWKDGFTYYADSVKGRFTISADNSKNTAYLQMNSLKPEDTAVYYCAGVGHDYGDYLFDYWGQGTLVTVSS
notes: VHH-Fc
With B12, the “OD (450 nm)” value amounted to 0.539 OD.

B13: TIGIT-SC16 (Fc fusion)
VHH: EVQLVESGGGLVQPGGSLRLSCAASGTTFSSAAMGWFRQAPGKEREWVASVLRGGYTWYADSVKGRFTISADNSKNTAYLQMNSLKPEDTAVYYCARDPVELGDYWGQGTLVTVSS
notes: VHH-Fc
For B13, the “OD (450 nm)” value turned out to be 0.471 OD.

B14: TIGIT-SC30 (Fc fusion)
VHH: EVQLVESGGGLVQPGGSLRLSCAASGRSFSSDWIGWFRQAPGKERELVAAIDWSGGSALYADSVKGRFTISADNSKNTAYLQMNSLKPEDTAVYYCARVNWNNVGWFDPWGQGTLVTVSS
notes: VHH-Fc
Consider B14, for which the “OD (450 nm)” value came to 0.495 OD.

B15: TIGIT-SC13 (Fc fusion)
VHH: EVQLVESGGGLVQPGGSLRLSCAASGRTFSFMGWFRQAPGKEREWVASVLRGGYTWYADSVKGRFTISADNSKNTAYLQMNSLKPEDTAVYYCATESMDYWGQGTLVTVSS
notes: VHH-Fc
As to B15, the “OD (450 nm)” value was 0.666 OD.

B16: TIGIT-SC173 (Fc fusion)
VHH: EVQLVESGGGLVQPGGSLRLSCAASGFTFSPSWMGWFRQAPGKEREWVASVLRGGYTWYADSVKGRFTISADNSKNTAYLQMNSLKPEDTAVYYCATERRLGVWGQGTLVTVSS
notes: VHH-Fc
With B16, the “OD (450 nm)” value is 0.578 OD.

B17: TIGIT-SC203 (Fc fusion)
VHH: EVQLVESGGGLVQPGGSLRLSCAASGFTFSPSWMGWFRQAPGKEREWVASVLRGGYTWYADSVKGRFTISADNSKNTAYLQMNSLKPEDTAVYYCARDRGGSDWGQGTLVTVSS
notes: VHH-Fc
In the case of B17, the “OD (450 nm)” value was 0.521 OD.

B18: TIGIT-SC201 (Fc fusion)
VHH: EVQLVESGGGLVQPGGSLRLSCAASGFTFSPSWMGWFRQAPGKEREWVASVLRGGYTWYADSVKGRFTISADNSKNTAYLQMNSLKPEDTAVYYCTRDGGFDPWGQGTLVTVSS
notes: VHH-Fc
Regarding B18, the “OD (450 nm)” value stood at 0.509 OD.

B19: TIGIT-SC25 (Fc fusion)
VHH: EVQLVESGGGLVQPGGSLRLSCAASGNTFSGGFMGWFRQAPGKEREWVASVLRGGYTWYADSVKGRFTISADNSKNTAYLQMNSLKPEDTAVYYCTTVGYGDYWGQGTLVTVSS
notes: VHH-Fc
On to B19, for which the “OD (450 nm)” value was 0.469 OD.

B20: TIGIT-SC42 (Fc fusion)
VHH: EVQLVESGGGLVQPGGSLRLSCAASGNTFSGGFMGWFRQAPGKEREWVATVLRGGYTWYADSVKGRFTISADNSKNTAYLQMNSLKPEDTAVYYCASGGFLASWGQGTLVTVSS
notes: VHH-Fc
In the case of B20, the “OD (450 nm)” value amounted to 0.341 OD.

B21: TIGIT-SC198 (Fc fusion)
VHH: EVQLVESGGGLVQPGGSLRLSCAASGFTFSPSWMGWFRQAPGKEREYVASVLRGGYTWYADSVKGRFTISADNSKNTAYLQMNSLKPEDTAVYYCASEGDPDYWGQGTLVTVSS
notes: VHH-Fc
On to B21, for which the “OD (450 nm)” value turned out to be 0.514 OD.

B22: TIGIT-SC195 (Fc fusion)
VHH: EVQLVESGGGLVQPGGSLRLSCAASGFAFSSDWMGWFRQAPGKEREWVASVLRGGYTWYADSVKGRFTISADNSKNTAYLQMNSLKPEDTAVYYCARGEGFDYWGQGTLVTVSS
As for B22, the “OD (450 nm)” value came to 0.426 OD.

B23: TIGIT-SC191 (Fc fusion)
VHH: EVQLVESGGGLVQPGGSLRLSCAASGFVFSSDWMGWFRQAPGKEREWVASVLRGGYTWYADSVKGRFTISADNSKNTAYLQMNSLKPEDTAVYYCARGDSMDVWGQGTLVTVSS
notes: VHH-Fc
For B23, the “OD (450 nm)” value amounted to 0.49 OD.

B24: TIGIT-SC171 (Fc fusion)
VHH: EVQLVESGGGLVQPGGSLRLSCAASGFTFDRSWMGWFRQAPGKEREWVASVLRGGYTWYADSVKGRFTISADNSKNTAYLQMNSLKPEDTAVYYCATERRLGVWGQGTLVTVSS
notes: VHH-Fc
Take B24: the “OD (450 nm)” value was 0.571 OD.

B25: TIGIT-SC20 (Fc fusion)
VHH: EVQLVESGGGLVQPGGSLRLSCAASGNTFSGGFMGWFRQAPGKEREWVASVLRGGYTWYADSVKGRFTISADNSKNTAYLQMNSLKPEDTAVYYCATPRGYWGQGTLVTVSS
notes: VHH-Fc
With B25, the “OD (450 nm)” value came to 0.726 OD.

B26: TIGIT-SC15 (Fc fusion)
VHH: EVQLVESGGGLVQPGGSLRLSCAASGSILSFNHIGWFRQAPGKEREGVAWIARYDGSTLYADSVKGRFTISADNSKNTAYLQMNSLKPEDTAVYYCARARGGYVDYWGQGTLVTVSS
notes: VHH-Fc
Regarding B26, the “OD (450 nm)” value was found to be 0.576 OD.

B27: TIGIT-SC27 (Fc fusion)
VHH: EVQLVESGGGLVQPGGSLRLSCAASGLTFSNYVMGWFRQAPGKEREVVAGILSDGRELYADSVKGRFTISADNSKNTAYLQMNSLKPEDTAVYYCARDVFGEGHWGQGTLVTVSS
notes: VHH-Fc
For B27, the “OD (450 nm)” value was found to be 0.505 OD.

B28: TIGIT-SC165 (Fc fusion)
VHH: EVQLVESGGGLVQPGGSLRLSCAASGNTFSGGFMGWFRQAPGKEREWVASVLRGGYTWYADSVKGRFTISADNSKNTAYLQMNSLKPEDTAVYYCTTEGSGWRNWGQGTLVTVSS
notes: VHH-Fc
Consider B28, for which the “OD (450 nm)” value was 0.324 OD.

B29: TIGIT-SC17 (Fc fusion)
VHH: EVQLVESGGGLVQPGGSLRLSCAASGFDFSVSWMGWFRQAPGKEREWVASVLRGGYTWYADSVKGRFTISADNSKNTAYLQMNSLKPEDTAVYYCAREGSWFDYWGQGTLVTVSS
notes: VHH-Fc
On to B29, for which the “OD (450 nm)” value was found to be 0.553 OD.

B30: TIGIT-SC37 (Fc fusion)
VHH: EVQLVESGGGLVQPGGSLRLSCAASGNTFSGGFMGWFRQAPGKEREWVASVLRGGYTWYADSVKGRFTISADNSKNTAYLQMNSLKPEDTAVYYCVFGGVWQDVWGQGTLVTVSS
notes: VHH-Fc
With B30, the “OD (450 nm)” value is 0.341 OD.

B31: TIGIT-SC189 (Fc fusion)
VHH: EVQLVESGGGLVQPGGSLRLSCAASGNTFSGGFMGWFRQAPGKEREWVASVLRGGYTWYADSVKGRFTISADNSKNTAYLQMNSLKPEDTAVYYCVTDVGAPDYWGQGTLVTVSS
notes: VHH-Fc
As for B31, the “OD (450 nm)” value stood at 0.486 OD.

B32: TIGIT-SC164 (Fc fusion)
VHH: EVQLVESGGGLVQPGGSLRLSCAASGFTFDRSWMGWFRQAPGKEREFVASVLRGGYTWYADSVKGRFTISADNSKNTAYLQMNSLKPEDTAVYYCTTEGSGWRNWGQGTLVTVSS
notes: VHH-Fc
Turning to B32, the “OD (450 nm)” value is 0.363 OD.
